{"source": "paper PMC3246455", "about": "“Degradation of Pheromone and Plant Volatile Components by a Same Odorant-Degrading Enzyme in the Cotton Leafworm, Spodoptera littoralis” (PLoS ONE, 2011)", "proteins": {"B1": {"name": "SlCXE7 (Spodoptera littoralis) (protein)", "chain": "DDEWREVKTAQGPVRGRKHPTEDIYTFYNIPYATAPVGVDRFKAPLPPPVWLQPYDAVEKPVVCPQPVFPFPELQLNKLVKQENCLIANVFVPNTNKKNLSVVVYVHGGAFIMGWGDMFRATQLMNKKDIIVVTFNYRLGVHGFLCLGTEDAPGNAGMKDQVALLRWVQKNIGSFNGNPDDVTIIGFSAGSASVDLLMLSKSAEGLFHRVVPESGGNLAAFAIQRDPVEIAKTYARQLNFTNVDDIYALGEFYKTAPLELLTSDPFFDRTDSTFLFSPCVERNMGQETFLTESPLTILKNGNYKKLPVLYGFAEMEGLLRVDFFPFWKQKMSDKFSDFLPADLTFKYEEEREEVANKVKRFYFGDEPVSEDNILQYVNFFSDVLFMHPMLWATKLHVEAGNNQIYLYELSFVAEEVPEVPHTNIKGVTQCGQSLAVLDGKNLTHKSHSEESLATPEYQKMKKTMREIWYNFIKKGKPVPEGSTRPAWPFAGADRSPHMSLGQKIEPRGVLLEKRTVLWDDINQRYFREPVPPPTPPPKSHAEK", "notes": "complete ORF amplified from male antennal cDNA, C-terminal V5/6His tag (tag kept), secreted from baculovirus-infected Sf21 cells, Ni-NTA purified from supernatant"}}, "type_in_all_cases": "biochemical, Spodoptera littoralis", "key": {"[1]": {"substrate": "CC/C=C\\CCOC(C)=O", "experiment": "GC of the released alcohol, as in an earlier paper", "details": "incubation and analyses as in ref 12; one-site fit"}, "[2]": {"substrate": "C/C=C/C/C=C\\CCCCCCCCOC(C)=O", "experiment": "GC of the released alcohol, nonlinear fit", "details": "5 min incubation, one-site fit, buffer and temperature not restated for kinetics (1 h assay: 20 mM Tris pH 7.4, 28°C)"}, "[3]": {"substrate": "CC/C=C/C=C\\CCCCCCCCOC(C)=O", "experiment": "GC of the released alcohol, nonlinear fit", "details": "5 min incubation, one-site fit, buffer and temperature not restated for kinetics (1 h assay: 20 mM Tris pH 7.4, 28°C)"}}}
{"protein": "B1", "values": [{"measurement": "Km", "setting": "[1]", "result": "1600 ± 700", "unit": "µM"}, {"measurement": "kcat", "setting": "[1]", "result": 36, "unit": "s⁻¹"}, {"measurement": "Km", "setting": "[2]", "result": "42.6 ± 13.3", "unit": "µM"}, {"measurement": "kcat", "setting": "[2]", "result": "~0.4", "unit": "s⁻¹"}, {"measurement": "Km", "setting": "[3]", "result": "56.6 ± 18.5", "unit": "µM"}, {"measurement": "kcat", "setting": "[3]", "result": "~0.4", "unit": "s⁻¹"}]}
